Laboratory results taken from patent US20250320252A1 (Scripps Research, published 2025).
Where two headings read alike, the source gives them in different places. Bridge positions count the residues as written; N and C are the ends. Square brackets hold non-standard residues; d marks the D form. Ends that are not written are not given here. C20L5A = not defined here; Nle = CCCC[C@H](N)C(=O)O; L5A = not defined here; K4 = not defined here; K5 = not defined here; Aib = CC(C)(N)C(=O)O

Columns and labels:
Test in all cases: cell-based or functional assay
human GIP receptor [1] = biological target: T1, human GIP receptor (human, UniProt P48546 22-466)
T1 sequence (looked up): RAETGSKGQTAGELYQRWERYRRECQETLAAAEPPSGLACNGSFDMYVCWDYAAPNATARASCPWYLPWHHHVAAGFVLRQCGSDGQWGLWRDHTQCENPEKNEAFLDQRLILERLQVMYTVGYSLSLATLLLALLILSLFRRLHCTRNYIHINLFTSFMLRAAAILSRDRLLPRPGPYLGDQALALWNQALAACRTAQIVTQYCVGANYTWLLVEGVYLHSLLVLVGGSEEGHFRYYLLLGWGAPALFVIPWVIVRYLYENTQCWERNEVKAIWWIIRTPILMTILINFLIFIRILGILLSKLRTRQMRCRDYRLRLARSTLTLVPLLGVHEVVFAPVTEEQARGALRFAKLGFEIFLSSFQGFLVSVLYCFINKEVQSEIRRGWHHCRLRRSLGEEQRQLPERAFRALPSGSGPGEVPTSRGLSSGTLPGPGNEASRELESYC

human GIP receptor [2] = biological target: T1, human GIP receptor; remark: listed apart in the source
human GIP receptor [3] = biological target: T1, human GIP receptor; remark: listed apart in the source
human GIP receptor [4] = biological target: T1, human GIP receptor; remark: listed apart in the source
human GLP-1 receptor [5] = biological target: T2, human GLP-1 receptor (human, UniProt P43220 24-463)
human GLP-1 receptor [6] = biological target: T2, human GLP-1 receptor; remark: listed apart in the source
human GLP-1 receptor [7] = biological target: T2, human GLP-1 receptor; remark: listed apart in the source

Binder: Y[Aib]EGTFTSDYSIYCDKQAA[Aib]CFVNWLLAGGPSSGAPPPS-NH2 (linker 14-21 via C20L5A; reading uncertain) [C(14-21)-C20L5A]
- EC50 of receptor-mediated cAMP synthesis, GIPR (nM), 02/19 (human GIP receptor [1]): 0.07 nM
- EC50 of receptor-mediated cAMP synthesis, GIPR (nM), 03/25 (human GIP receptor [1]): 0.04 nM
- EC50 of receptor-mediated cAMP synthesis, GIPR (nM), 03/26 (human GIP receptor [1]): 0.04 nM
- EC50 of receptor-mediated cAMP synthesis, GIPR (nM), average (human GIP receptor [1]): 0.05 nM
- EC50 [nM] of receptor-mediated cAMP synthesis (human GIP receptor [2]): 0.05 nM

Binder: Y[Aib]EGTFTSDYSIYLDKCAQ[Aib]AFVCWLIAQGPSSGAPPPS-NH2 (linker 17-24 via C20L5A; not fully specified; reading uncertain) [19Q, 21A, 27I, 29Q, C(17-24) - C20L5A]
- EC50 [nM] of receptor-mediated cAMP synthesis (human GIP receptor [3]): 0.02 nM

Binder: H-Y[Aib]EGTFHSDYDIYKDKQAA[Aib]KFVQWLLAGGPSSGAPPPS-NH2 (bridge 14-21 via K5; reading uncertain) [ZA-41 - K5]
- EC50 [nM] of receptor-mediated cAMP synthesis (human GIP receptor [4]): 12.6 nM
- EC50 [nM] of receptor-mediated cAMP synthesis (human GLP-1 receptor [5]): 83.9 nM

Binder: Y[Aib]EGTFISDVSIYCDKQAA[Aib]CFVNWLIAGGPSSGAPPPS-NH2 (linker 14-21 via L5A; not fully specified; reading uncertain) [7I, 10V, 27I, C(14-21) - L5A]
- EC50 [nM] of receptor-mediated cAMP synthesis (human GIP receptor [2]): 12.6 nM
- EC50 [nM] of receptor-mediated cAMP synthesis (human GLP-1 receptor [6]): 83.9 nM

Binder: Y[Aib]EGTYTNDYSIYLDKCAA[Aib]EFVCWLIAGGPSSGAPPPS-NH2 (linker 17-24 via C20L5A; not fully specified; reading uncertain) [6Y, 8N, 27I, C(17-24)-C20L5A]
- EC50 of receptor-mediated cAMP synthesis, GIPR (nM), 02/19 (human GIP receptor [1]): 2.48 nM
- EC50 of receptor-mediated cAMP synthesis, GIPR (nM), 03/26 (human GIP receptor [1]): 3.29 nM
- EC50 of receptor-mediated cAMP synthesis, GIPR (nM), average (human GIP receptor [1]): 2.88 nM
- EC50 of receptor-mediated cAMP synthesis, GLP1R (nM), 02/19 (human GLP-1 receptor [7]): 0.06 nM
- EC50 of receptor-mediated cAMP synthesis, GLP1R (nM), 3/25 (human GLP-1 receptor [7]): 0.11 nM
- EC50 of receptor-mediated cAMP synthesis, GLP1R (nM), 03/26 (human GLP-1 receptor [7]): 0.07 nM
- EC50 of receptor-mediated cAMP synthesis, GLP1R (nM), average (human GLP-1 receptor [7]): 0.08 nM

Binder: H-Y[Aib]EGTFHSDYDIYKDKQAA[Nle]KFVAWLLAGGPSSGAPPPS-NH2 (linker 14-21 via K4; not fully specified; reading uncertain) [ZA-42 - K4]
- EC50 [nM] of receptor-mediated cAMP synthesis (human GIP receptor [4]): 20.4 nM
- EC50 [nM] of receptor-mediated cAMP synthesis (human GLP-1 receptor [5]): 18.8 nM

Binder: H-Y[Aib]EGTFT[dS]DY[dS]IYKDKQAA[Nle]KFVAWLLAGGPSSGAPPPS-NH2 (linker 14-21 via K5; not fully specified; reading uncertain) [ZA-43 - K5]
- EC50 [nM] of receptor-mediated cAMP synthesis (human GIP receptor [4]): 15.7 nM
- EC50 [nM] of receptor-mediated cAMP synthesis (human GLP-1 receptor [5]): 3.74 nM

Binder: Y[Aib]EGTFTSDYSIYCDKQAA[Aib]CFVNWLIAGGPSSGAPPPS-NH2 (linker 14-21 via L5A; not fully specified; reading uncertain) [27I, C(14-21)-L5A]
- EC50 [nM] of receptor-mediated cAMP synthesis (human GIP receptor [2]): 0.03 nM
- EC50 [nM] of receptor-mediated cAMP synthesis (human GLP-1 receptor [6]): 0.04 nM

Binder: Y[Aib]EGTYTSDYSIYLDKCAA[Aib]EFVCWLIAGGPSSGAPPPS-NH2 (linker 17-24 via C20L5A; not fully specified; reading uncertain) [6Y, 27I, C(17-24)-C20L5A]
- EC50 of receptor-mediated cAMP synthesis, GIPR (nM), 02/19 (human GIP receptor [1]): 0.27 nM
- EC50 of receptor-mediated cAMP synthesis, GIPR (nM), 03/25 (human GIP receptor [1]): 0.27 nM
- EC50 of receptor-mediated cAMP synthesis, GIPR (nM), 03/26 (human GIP receptor [1]): 0.25 nM
- EC50 of receptor-mediated cAMP synthesis, GIPR (nM), average (human GIP receptor [1]): 0.26 nM
- EC50 of receptor-mediated cAMP synthesis, GLP1R (nM), 02/19 (human GLP-1 receptor [7]): 0.05 nM
- EC50 of receptor-mediated cAMP synthesis, GLP1R (nM), 3/25 (human GLP-1 receptor [7]): 0.07 nM
- EC50 of receptor-mediated cAMP synthesis, GLP1R (nM), 03/26 (human GLP-1 receptor [7]): 0.06 nM
- EC50 of receptor-mediated cAMP synthesis, GLP1R (nM), average (human GLP-1 receptor [7]): 0.06 nM

Binder: Y[Aib]EGTYTSDYSIYCDKQAA[Aib]CFVNWLIAGGPSSGAPPPS-NH2 (linker 14-21 via C20L5A; not fully specified; reading uncertain) [6Y, 27I, C(14-21)-C20L5A]
- EC50 of receptor-mediated cAMP synthesis, GIPR (nM), 02/19 (human GIP receptor [1]): 0.5 nM
- EC50 of receptor-mediated cAMP synthesis, GIPR (nM), 03/25 (human GIP receptor [1]): 0.58 nM
- EC50 of receptor-mediated cAMP synthesis, GIPR (nM), 03/26 (human GIP receptor [1]): 0.6 nM
- EC50 of receptor-mediated cAMP synthesis, GIPR (nM), average (human GIP receptor [1]): 0.56 nM
- EC50 of receptor-mediated cAMP synthesis, GLP1R (nM), 02/19 (human GLP-1 receptor [7]): 0.04 nM
- EC50 of receptor-mediated cAMP synthesis, GLP1R (nM), 3/25 (human GLP-1 receptor [7]): 0.07 nM
- EC50 of receptor-mediated cAMP synthesis, GLP1R (nM), 03/26 (human GLP-1 receptor [7]): 0.07 nM
- EC50 of receptor-mediated cAMP synthesis, GLP1R (nM), average (human GLP-1 receptor [7]): 0.06 nM

Binder: H-Y[Aib]EGTFHSDYDIYKDKQAA[Nle]KFVAWLLAGGPSSGAPPPS-NH2 (linker 14-21 via K5; not fully specified; reading uncertain) [ZA-42 - K5]
- EC50 [nM] of receptor-mediated cAMP synthesis (human GIP receptor [4]): 303 nM
- EC50 [nM] of receptor-mediated cAMP synthesis (human GLP-1 receptor [5]): ~13700 nM

Binder: Y[Aib]EGTFTSDYSIYKDKQAA[Aib]KFVNWLLAGGPSSGAPPPS-NH2 (bridge 14-21 via K5; reading uncertain) [mCLZ715]
- EC50 [nM] of receptor-mediated cAMP synthesis (human GIP receptor [4]): 0.02 nM
- EC50 [nM] of receptor-mediated cAMP synthesis (human GLP-1 receptor [5]): 0.02 nM

Binder: H-Y[Aib]EGTFT[dS]DY[dS]IYKDKQAA[Nle]KFVAWLLAGGPSSGAPPPS-NH2 (linker 14-21 via K4; not fully specified; reading uncertain) [ZA-43 - K4]
- EC50 [nM] of receptor-mediated cAMP synthesis (human GIP receptor [4]): 11.3 nM
- EC50 [nM] of receptor-mediated cAMP synthesis (human GLP-1 receptor [5]): 1.32 nM

Binder: Y[Aib]EGTFISDVSIYCDKQAA[Aib]CFVNWLIAGGPSSGAPPPS-NH2 (linker 14-21 via C20L5A; not fully specified; reading uncertain) [7I, 10V, 27I, C(14-21) - C20L5A]
- EC50 [nM] of receptor-mediated cAMP synthesis (human GIP receptor [2]): 303 nM
- EC50 [nM] of receptor-mediated cAMP synthesis (human GLP-1 receptor [6]): ~13700 nM

Binder: Y[Aib]EGTFTSDYSIYCDKQAA[Aib]CFVNWLLAGGPSSGAPPPS-NH2 (linker 14-21 via L5A; not fully specified; reading uncertain) [mCMC759 (C(14-21)-L5A)]
- EC50 [nM] of receptor-mediated cAMP synthesis (human GIP receptor [3]): 0.03 nM
- EC50 [nM] of receptor-mediated cAMP synthesis (human GIP receptor [2]): 0.03 nM

Binder: H-Y[Aib]EGTFHSDYDIYKDKQAA[Aib]KFVQWLLAGGPSSGAPPPS-NH2 (bridge 14-21 via K4; reading uncertain) [ZA-41 - K4]
- EC50 [nM] of receptor-mediated cAMP synthesis (human GIP receptor [4]): 5.31 nM
- EC50 [nM] of receptor-mediated cAMP synthesis (human GLP-1 receptor [5]): 13.8 nM

Binder: Y[Aib]EGTFTSDYSIYCDKQAA[Aib]CFVNWLIAGGPSSGAPPPS-NH2 (linker 14-21 via C20L5A; not fully specified; reading uncertain) [mCMV266 (27I, C(14-21)-C20L5A)]
- EC50 of receptor-mediated cAMP synthesis, GIPR (nM), 02/19 (human GIP receptor [1]): 0.08 nM
- EC50 of receptor-mediated cAMP synthesis, GIPR (nM), 03/25 (human GIP receptor [1]): 0.06 nM
- EC50 of receptor-mediated cAMP synthesis, GIPR (nM), 03/26 (human GIP receptor [1]): 0.06 nM
- EC50 of receptor-mediated cAMP synthesis, GIPR (nM), average (human GIP receptor [1]): 0.07 nM
- EC50 of receptor-mediated cAMP synthesis, GLP1R (nM), 02/19 (human GLP-1 receptor [7]): 0.03 nM
- EC50 of receptor-mediated cAMP synthesis, GLP1R (nM), 3/25 (human GLP-1 receptor [7]): 0.05 nM
- EC50 of receptor-mediated cAMP synthesis, GLP1R (nM), 03/26 (human GLP-1 receptor [7]): 0.06 nM
- EC50 of receptor-mediated cAMP synthesis, GLP1R (nM), average (human GLP-1 receptor [7]): 0.05 nM
- EC50 [nM] of receptor-mediated cAMP synthesis (human GIP receptor [2]): 0.07 nM
- EC50 [nM] of receptor-mediated cAMP synthesis (human GLP-1 receptor [6]): 0.05 nM
